Assay results as given in patent CN114478784A (SHAANXI PULSE ELEMENT BIOTECHNOLOGY LTD COMPANY, dated 2022).

Tests used:
[1] = molecular target: 纯化的ENO2蛋白 (purified ENO2 protein coated in Example 7) (UniProt P09104 1-434, limits assumed); test: ELISA, ENO2 coated at 100 ng/well, 293T supernatant, HRP anti-heavy-chain IgG / anti-kappa secondary, OD450
[2] = molecular target: T1, ENO2-GST (human ENO2 expressed from pGEX 4t-1, GST-purified) (human, UniProt P09104 1-434); test: ELISA screening of hybridoma supernatants on coated ENO2-GST (100 ng/well), three rounds of subcloning
T1 construct: Expressed in E. coli BL21(DE3) and used to coat the ELISA plates; also called pGEX 4t-1载体表达的ENO2; ENO2抗原; not shown: GST tag of vector pGEX 4t-1
T1 sequence (P09104 whole entry): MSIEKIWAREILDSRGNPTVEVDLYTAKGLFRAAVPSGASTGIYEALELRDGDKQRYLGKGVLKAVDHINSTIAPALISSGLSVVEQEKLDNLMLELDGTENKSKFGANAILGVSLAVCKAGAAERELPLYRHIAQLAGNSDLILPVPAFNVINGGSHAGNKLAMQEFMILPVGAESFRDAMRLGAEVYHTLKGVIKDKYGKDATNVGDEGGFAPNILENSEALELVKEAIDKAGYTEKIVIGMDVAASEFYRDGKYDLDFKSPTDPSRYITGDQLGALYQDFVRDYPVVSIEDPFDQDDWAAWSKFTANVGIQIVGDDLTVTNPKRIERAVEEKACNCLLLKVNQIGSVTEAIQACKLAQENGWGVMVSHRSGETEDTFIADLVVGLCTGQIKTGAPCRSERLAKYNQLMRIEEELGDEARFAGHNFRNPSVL

[3] = molecular target: T2, ENO2 with C-terminal flag tag (ENO2flag-pcDNA3.1, expressed in transfected cells, lysate) (UniProt P09104 2-434); test: Western blot, lysate of cells transfected with ENO2flag-pcDNA3.1, hybridoma supernatant as primary antibody
T2 construct: Denatured cell lysate on SDS-PAGE / PVDF membrane (Western blot); also called ENO2抗原; not shown: C-terminal flag tag
T2 sequence (P09104 2-434 limits assumed): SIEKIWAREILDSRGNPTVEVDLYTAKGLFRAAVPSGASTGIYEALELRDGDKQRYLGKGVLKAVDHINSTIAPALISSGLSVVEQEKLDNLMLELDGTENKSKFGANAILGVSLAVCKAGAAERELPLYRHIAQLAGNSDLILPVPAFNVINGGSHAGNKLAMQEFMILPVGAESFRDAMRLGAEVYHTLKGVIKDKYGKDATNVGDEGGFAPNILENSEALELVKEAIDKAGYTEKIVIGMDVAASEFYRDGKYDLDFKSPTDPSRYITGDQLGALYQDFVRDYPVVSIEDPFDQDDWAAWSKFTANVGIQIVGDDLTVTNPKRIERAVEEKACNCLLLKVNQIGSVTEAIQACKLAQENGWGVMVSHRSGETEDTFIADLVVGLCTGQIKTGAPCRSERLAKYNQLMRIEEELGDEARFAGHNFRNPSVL

Chain of 纯化的ENO2蛋白 (purified ENO2 protein coated in Example 7) (P09104 whole entry): as the sequence (P09104 whole entry) above

| binding result [1] | binding result [2] | binding result [3] | Binder |
| --- | --- | --- | --- |
| no binding |  |  | 1C5mk alone (recombinant 1C5 light chain, transfected without the heavy chain) (other, Tested as supernatant of 293T cells transfected with the light chain plasmid only; also called 轻链1C5mk) light: QAVVTQESALTTSPGETVTLTCRSNTGAVTTSNYANWVQEKPDHLFTGLIGGTYNRAPGVPARFSGSLIGDKAALTITGAQTEDEAIYFCSLWYSNHWVFGGGTKLTVLRADAAPTVSIFPPSSEQLTSGGASVVCFLNNFYPKDINVKWKIDGSERQNGVLNSWTDQDSKDSTYSMSSTLTLTKDEYERHNSYTCEATHKTSTSPIVKSFNRNEC |
|  | binds | binds | ENO2单克隆抗体1C5 (from hybridoma) (antibody, V domains shown, It was used as hybridoma culture supernatant in the assays; also called 1C5单克隆抗体; 杂交瘤细胞上清) VH: EVKLVESGGDLVQPGGSLRLSCATSGFTFTDYYMIWVRQPPGKALEWLGFIRNKANGYTTQYNASVKGRFTISRDNSQSILYLQMNTLRPEDSATYYCVRDRRGTTFAYWGQGTLVTVSA VL: QAVVTQESALTTSPGETVTLTCRSNTGAVTTSNYANWVQEKPDHLFTGLIGGTYNRAPGVPARFSGSLIGDKAALTITGAQTEDEAIYFCSLWYSNHWVFGGGTKLTVL |
